Source: patent publication US20160009800A1 (XOMA US, published 2016)

B1: Ab078 (antibody, IgG2, V domains shown)
VH: QVQLVQSGGGLVQPGGSLRLSCAASGFTFSSYSMNWVRQAPGKGLEWVSSISSSSSYIYYADSVKGRFTISRDNAKNSLYLQMNSLRAEDTAVYYCARDQGGELLGFTGYFDYWGQGTLVTVSS
VL: DIQLTQSPSSLSASVGDRVTITCRASQGISSALAWYQQKPGKAPKVLIYDASSLERGVPSRFSGSGTGTDFTLTISSLQPEDFASYYCHQFNSYPDTFGQGTRLEIK
notes: also called XPA.015.244
B2: Ab077 (antibody, IgG2, V domains shown)
VH: EVQLVESGGGVVQPGGSLRLSCAASGFTFSSYWMTWVRQAPGKGLEWVANINQDGSEKHYVDSVKGRFTISRDNAKNSLYLQMNSLRGEDTAVYYCARGRGAWAFDYWGQGTLVTVSS
VL: DIQMTQSPSSLSASVGDRVTITCRASQGISSWLAWYQQKPGKAPKLLIYAASSLQSGVPSRFSGSGSGTDFTLTISSLQPEDFATYYCQQANSFPITFGQGTRLEIK
notes: also called XPA.015.243

Columns and labels:
[1] = molecular target: T1, human insulin receptor complexed with human insulin (human, UniProt P06213 28-1382; P01308 25-54; P01308 90-110); assay: FACS, CHO-K1 human INSR cells, signal with insulin divided by signal without insulin [cont'd]
T1 construct: whole, on cells;mature; also called hINSR-hINS complex; INS/INSR complex
Description: (§1) Twenty five microliter aliquots of cells were plated into 96 well plates, mixed with 25 ul of antibody or PPE and incubated on ice for 1 h.
(§2) The cells were then washed once with FACS buffer and the binding of the antibody was detected by the addition of 25 ul of an appropriate fluorochrome-conjugated secondary antibody. […] After a final 15 min incubation on ice the cells were washed and the pellets resuspended in FACS buffer. The cells were analyzed on a FACSCAN™ (Becton-Dickinson, Milipitas, Calif.) and the data analyzed in both FLOWJO™ (Treestar, Ashland, Oreg.) and Microsoft Excel™.

[2] = molecular target: T2, mouse insulin receptor complexed with human insulin (mouse; human, UniProt P15208 28-1372; P01308 25-54; P01308 90-110); assay: FACS, serum-starved CHO-K1 cells expressing mouse INSR, with insulin [cont'd]
T2 construct: whole, on cells;mature; also called muINSR/hINS complex
Description: as §1, §2

[3] = molecular target: T1, human insulin receptor complexed with …; assay: KinExA antibody depletion by hINSR8-CHOK1 cells, with 175 nM insulin
Description: Beads were rotated at room temperature for 6 hours then allowed to settle. Supernatant was replaced with PBS with 50 mg/mL BSA Fraction V (Sigma-Aldrich, St. Louis, Mo.) and rotated overnight at 4° C. […] On the KinExA 3000 the sample was injected at 0.25 mL/minute for 240 seconds, then rinsed for 60 seconds in running buffer (PBS with 0.05% sodium azide), then 240 seconds of the detection solution was injected, followed by a final 90 second wash at 1 mL/minute. The difference in voltage from an early initial time-point and a time point near the end of the run was measured and used to calculate affinities. The INSR concentration on the cells was estimated at 2.5×10⁵ receptors/cell. Affinity was determined using the KinExA software (Sāpidyne, Boise Id.) and EC50's were calculated by non-linear fit in Prism (GraphPad Software, La Jolla Calif.).
Samples were incubated overnight at 4° C. for 18 hours then centrifuged to pellet cells and supernatants were removed for testing on the KinExA. […] Detection solution used was R-PE-(Fab′)2 fragment goat anti-Human IgG(H+L) (Jackson Immuno Research, West Grove Pa.).

rabbit insulin receptor [4] = molecular target: T3, rabbit insulin receptor (rabbit, UniProt A0A5F9DAH8 25-1377); assay: FACS on monocytes of rabbit PBMC and on CHO cells expressing rabbit insulin receptor, without insulin
T3 construct: whole, on cells

[5] = molecular target: T2, mouse insulin receptor complexed with …; assay: FACS, CHO-K1 mouse INSR cells, signal with insulin divided by signal without insulin [cont'd]
Description: as §1, §2

human insulin receptor [6] = molecular target: T4, human insulin receptor (human, UniProt P06213 28-1382); assay: cell-based or functional assay
human insulin receptor [7] = molecular target: T4, human insulin receptor; assay: cell-based or functional assay; remark: listed apart in the source
human insulin receptor [8] = molecular target: T4, human insulin receptor; assay: FACS, serum-starved CHO-K1 cells expressing human INSR, no insulin [cont'd]
[9] = molecular target: T1, human insulin receptor complexed with …; assay: FACS, serum-starved CHO-K1 cells expressing human INSR, with insulin [cont'd]
mouse insulin receptor [10] = molecular target: T5, mouse insulin receptor (mouse, UniProt P15208 28-1372); assay: cell-based or functional assay
mouse insulin receptor [11] = molecular target: T5, mouse insulin receptor; assay: FACS, serum-starved CHO-K1 cells expressing mouse INSR, no insulin [cont'd]
Description: as §1, §2

rabbit insulin receptor [12] = molecular target: T3, rabbit insulin receptor; assay: FACS on monocytes of rabbit PBMC, without insulin
Excerpt: Cynomolgus monkey whole blood was obtained from California National Primate Research Center (Davis, Calif.) and rabbit whole blood was obtained from LifeSource Biomedical, LLC (Moffett Field, Calif.). Human PBMC were purified using Ficoll Hypaque from buffy coats obtained from the American Red Cross. Cynomolgus and Rabbit PBMC were than purified using Ficoll Hypaque gradients (Pharmacia). Purified PBMC were frozen and stored in liquid nitrogen prior to use in the assay. Human, cynomolgus and rabbit PBMC were thawed and washed with FACS Buffer (0.5% BSA and 0.1% NaN3 in PBS). Once the cells were prepared, they were used in the FACS staining assay at a final concentration of 2×10⁶ cells/ml.
After washing twice with FACS buffer, cells were stained with various markers to capture monocytes population. Human and cynomolgus cells were stained with CD45 and CD14. Rabbit cells were stained with CD11b and CD14. Antibodies were than incubated for 20 minutes and washed twice with FACS Buffer. Cells were than fixed with 2% paraformaldehyde and equal volume of FACS Buffer was added prior to cell analysis. The cells were analyzed on a FACScan™ (Becton-Dickinson, Franklin Lakes, N.J.) and the data was analyzed using both FloJo™ (Tristar, Paso Robles, Calif.) and GraphPad Prism 5 (GraphPad Software, La Jolla, Calif.).

FACS area under log transformed data MFI ratio (+insulin/-insulin) [1] | FACS area under log transformed data MFI [2] | Kd [3] | binding result (rabbit insulin receptor [4]) | FACS area under log transformed data MFI ratio (+insulin/-insulin) [5] | pAKT assay, fold-decrease in insulin EC50 relative to isotype control Ab (human insulin receptor [6]) | fold-change in insulin EC50 (pAkt) relative to isotype control, 20 ug/ml Ab078, human INSR CHO-K1 cells (human insulin receptor [7]) | FACS area under log transformed data MFI (human insulin receptor [8]) | FACS area under log transformed data MFI [9] | fold-change in insulin EC50 (pAkt) relative to isotype control, 20 ug/ml Ab077, mouse INSR CHO-K1 cells (mouse insulin receptor [10]) | fold-change in insulin EC50 (pAkt) relative to isotype control, 10 ug/ml Ab077, human INSR CHO-K1 cells (human insulin receptor [7]) | FACS area under log transformed data MFI (mouse insulin receptor [11]) | binding result (rabbit insulin receptor [12]) | Binder
66 | 217 | 0.34 nM | no binding | 17.6 | 3.3 fold | 3 fold | 11 | 704 | – | – | – | – | B1
2.12 | 103 | 6.4 nM | – | 2.28 | – | – | 127 | 268 | 8 fold | 9 fold | 45 | no binding | B2
